The assay addresses Ulp1^403-621-C580S, on CNBr-activated resin (S. cerevisiae) (UniProt Q02724). The assay can be described thus: pull-down; Ulp1^403-621-C580S on CNBr-activated resin incubated with yeast whole cell extract, 2 h at 4 °C, PBSN buffer; anti-Smt3 Western blot. (In general: Immunoblotting shows a protein as a band on a membrane.)
Chain of UniProt Q02724 (Q02724 403-621 C580S): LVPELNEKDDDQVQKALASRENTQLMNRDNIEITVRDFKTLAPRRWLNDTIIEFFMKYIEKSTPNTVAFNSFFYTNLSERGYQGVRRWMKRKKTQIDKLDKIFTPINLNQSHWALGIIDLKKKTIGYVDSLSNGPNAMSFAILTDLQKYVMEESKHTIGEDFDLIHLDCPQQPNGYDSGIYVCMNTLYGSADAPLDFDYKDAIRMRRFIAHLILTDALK

“Smt3 (yeast SUMO), as endogenous SUMO conjugates in yeast cell extract (from UniProt Q12306 1-101) (natural protein)” gave a percent of SUMO conjugates recovered on the resin of 50%.
